Assay results from article PMC10244618.
“And” between values parts separate entries of the source, which are not always exact repeats. Equal values may be shown once.

B1: NF2 (merlin) isoform 7, human, full length (507 aa, lacks exons 2-3 = isoform-1 residues 39-121; exon-16 C-terminus), P35240-4 (parent)
chain: MAGAIASRMSFSSLKRKQPKTFTVRIVTMDAEMEFNCEVKKQILDEKIYCPPEASVLLASYAVQAKYGDYDPSVHKRGFLAQEELLPKRVINLYQMTPEMWEERITAWYAEHRGRARDEAEMEYLKIAQDLEMYGVNYFAIRNKKGTELLLGVDALGLHIYDPENRLTPKISFPWNEIRNISYSDKEFTIKPLDKKIDVFKFNSSKLRVNKLILQLCIGNHDLFMRRRKADSLEVQQMKAQAREEKARKQMERQRLAREKQMREEAERTRDELERRLLQMKEEATMANEALMRSEETADLLAEKAQITEEEAKLLAQKAAEAEQEMQRIKATAIRTEEEKRLMEQKVLEAEVLALKMAEESERRAKEADQLKQDLQEAREAERRAKQKLLEIATKPTYPPMNPIPAPLPPDIPSFNLIGDSLSFDFKDTDMKRLSMEIEKEKVEYMEKSKHLQEQLNELKTEIEALKLKERETALDILHNENSDRGGSSKHNTIKKPQAQGRRPICI

Variants of: B1
Test: reverse yeast two-hybrid deep mutational scan (rY2H-seq): NF2 isoform 7 mutant library as bait mated with wild-type prey strains; selection on medium lacking adenine for non-interacting pairs; NextSeq paired-end sequencing; enrichment vs …
Settings: yeast diploids after mating (RBait_S3 x RPrey_S3), 30 °C, selection for reporter genes on NB agar, HIGHER = WEAKER BINDING (the opposite of display enrichments): higher = stronger loss of interaction: reverse Y2H selects yeast in which bait and prey do NOT interact (growth without adenine), so a …, hits-only table, scale: rY2H score, numbering: uniprot, sequence starts at 1
[1] = with EMILIN1 (elastin microfibril interfacer 1), Q9Y6C2, human ABL2 co-expressed as the kinase-dead K35M mutant …
[2] = with EMILIN1 (elastin microfibril interfacer 1), Q9Y6C2, human tyrosine kinase ABL2 co-expressed as the active kinase …
[3] = with NF2 C-terminal domain (wild type; homomeric NF2-NF2 interaction), P35240, human ABL2 co-expressed as the kinase-dead K35M mutant …, partner unresolved
[4] = with PIK3R3 (phosphatidylinositol 3-kinase regulatory subunit gamma), Q92569, human tyrosine kinase ABL2 co-expressed as the active kinase …
[5] = with KDM1A (lysine-specific histone demethylase 1A; the table's label AOF2 is a gene synonym of KDM1A), O60341, human ABL2 co-expressed as the kinase-dead K35M mutant …
[6] = with KDM1A (lysine-specific histone demethylase 1A; the table's label AOF2 is a gene synonym of KDM1A), O60341, human tyrosine kinase ABL2 co-expressed as the active kinase …

Variant	enrichment [1]	enrichment [2]	enrichment [3]	enrichment [4]	enrichment [5]	enrichment [6]
N176L	7.14	1.82	10.6	1.81	–	–
Q64A	2.42	–	–	8.91 and 12.3	–	–
H159S	21.9	–	18	–	–	–
L57E	1.73	–	–	–	–	–
E164L	2.39	–	–	2.07	3.94	–
E164K	2.27	–	–	2.53	–	–
E164A	2.89 and 5.48	2.44	1.48	6.96	5.57	–
R113C	3.78 and 3.75	7.86 and 3.66	–	7.41	4.82 and 6.06	4.42 and 5.11
S55E	6.87	5.24	–	–	5.38	7.48
E177L	4.46	2.3	5.54	–	–	–
R226G	1.63	–	–	–	–	–
K88R	1.95	2.74	–	–	–	–
D162K	1.74	–	–	–	–	–
D162L	3.3	–	2.21	–	2.41	–
I141A	20.7	–	–	–	21.3 and 14.9	30.8
Y161K	4.91	–	–	5.71	3.06	8.45
Y161A	2.53	2.63	2.34	2.72	–	2.23
Y161L	3.35 and 1.58	–	–	2.22	2.08	–
Y161W	3.13 and 2.01	6.81	–	5.85	–	–
K170R	2.58	–	–	2.74	–	3.72
L58K	3.39	9.82 and 9.59	2.82	–	7.46 and 14.7	7.51

Variant	enrichment [1]	enrichment [2]	enrichment [3]	enrichment [4]	enrichment [5]	enrichment [6]
N165L	3.15 and 2.54	3.7	2.17 and 4.23	8.43	6 and 7.17	1.81
N165E	5.14 and 5.74	3.48 and 2.42	5.73	7.65 and 9.27	11.1 and 8.25	4.76 and 3.86
N165A	3.8 and 4.08	5.59 and 4.51	3.7 and 6.3	–	5.23 and 4.34	11.8
I178K	6.13	–	2.57	–	–	–
Q82A	4.41	–	2.07	–	9.08	4.66
P174T	2.95	–	–	2.16 and 1.7	1.5 and 1.57 and 1.64	–
R115C	2.2	–	–	1.62	3.51 and 3.33	3.91
T97I	1.62	–	–	–	–	1.95
Y61L	3.12	5.18	3.55	4.61 and 3.92	9.24	7.08
I171K	2.56	1.76	–	6.85	4.6	8.42
K15A	6.29	6.35 and 3.55	–	7.57	13.9	2.57
S172P	1.73	–	–	2.04 and 2.73	1.94	–
T28L	5.37	–	–	–	–	–
S60L	2.18	–	–	–	2.95	–
D69A	2.53	–	–	–	–	–
M122E	4.7	–	–	–	–	–
K211I	3.12	3.16	2.67	2.81 and 3.72	5.27	2.6
R104E	3.93	–	–	–	–	–
G114A	7.29	–	2.02	3.53	–	–
C217Y	2.4	1.59	–	–	2.94	–

Other lines, results leading:

enrichment [1]	enrichment [2]	enrichment [3]	enrichment [4]	enrichment [5]	enrichment [6]	Variant
2.05	–	–	3.82	1.63	3.82	K313A
2.28	1.79 and 3.15	2.93	–	–	3.19 and 2.75	I329E
3	2.26 and 2.09	1.91 and 3.47	–	4.07	3.51	I329L
3.24	1.77	–	–	7.16	–	A319K
2.5	5.2 and 4.57	1.39 and 4.04	4.37	–	5.63	A319E
1.62	–	–	–	–	–	A312G
1.44	–	–	–	–	–	E311A
3.8	–	–	–	2.62 and 6.59	–	L315E
2.01	2.32 and 4.35	–	7.05	6.01	–	Q279K
1.65 and 3.1	2.14 and 6.11	–	–	6.76 and 4.54	1.63	L342K
2.66	3.99	–	–	2.28	–	L342A
3.3 and 9.12	3.94	1.9	–	4.91	–	L342E
3.66	4.28	–	4.09	2.42	6.92	E338A
2.57	2.53	3.03	–	5.57	–	E338L
2.51	–	–	–	–	–	E338K
2.37	–	–	–	–	–	E338R
2.52	3.39	–	–	4.56 and 4.18	–	A320L
2.57	–	–	–	–	2.94	T297A
3.19	3.78	–	–	7.66	4.47	E265L
4.95	–	–	–	–	–	E265K
5.44	5.18	4.73 and 3.13	–	–	–	L300E
2.8 and 1.9	1.83	–	–	4.14 and 1.58	–	K330E
6.85	–	–	–	–	–	K281A
1.89	–	–	–	–	–	R263T

enrichment [1]	enrichment [2]	enrichment [3]	enrichment [4]	enrichment [5]	enrichment [6]	Variant
2.14	–	–	–	1.91	–	R263K
3.17	–	–	–	–	–	R263L
2.24	–	–	–	–	–	K246A
1.4	1.64	–	–	–	–	K246R
3.03 and 1.45	–	–	–	–	–	K246L
5.54	–	–	–	–	2.38	L256A
1.56	4.55 and 5.13	1.81	10.8 and 3.63	2.38	6.57	R293A
2.19	2.64	–	–	–	–	R293E
2.68	–	–	–	–	–	M280E
3.61	–	–	–	–	–	A316S
1.79	–	4.2	–	–	–	Q317E
3.27	2.33	–	–	4.54 and 2.35	3.19	R335K
35.1	43.3	–	–	67.9 and 31.8	–	R335A
2.5	1.65	2.03	4.06 and 2.02	2.8	2.08	E259V
1.55	1.72	–	–	3.91 and 3.57	–	E259L
17.4 and 9.29	19.6	4.23	–	38.4	–	E259T
2.88 and 3.18	3.19	–	1.45	3.76	2.07 and 4.72	M343E
3.5	1.81	–	–	–	3.6	M343K
2.55 and 1.66	2.55 and 2.14	–	–	–	–	M343A
5.26	–	–	–	–	–	E337T
2.71	4.3 and 3.24	–	–	2.29	–	E337K
23.4	13.4	–	–	21.7	6.27	Q345T
1.99	–	–	–	–	–	L291P
